Assay results from article PMC5290946.
pKd: −log10 of the molar value.

Target: His-MxiC(C184A/C233S/A247C/S290C), labelled with MTSL (Shigella flexneri) (UniProt Q04640)
Experiment: continuous wave EPR; X-band, room temperature; MTSL-labelled His-MxiC(Cys) at ~75 μM with a 10-fold (~750 μM) or n-fold excess of the unlabelled partner, in 20 mM Tris-HCl pH 7.5, 100 mM NaCl; binding read from the change of the spin labels' spectrum; KD estimated from the molar ratio that gives half of the maximal change

## His6-IpaD(15-332) C322S (from UniProt P18013 15-332) (domain or fragment)
  pKd: 3.14
